# Reference: patent US6528295
# Molecular target: methylated PP2A C subunit (epitope-tagged, immunoprecipitated), P67775
# Sequence (P67775 whole entry): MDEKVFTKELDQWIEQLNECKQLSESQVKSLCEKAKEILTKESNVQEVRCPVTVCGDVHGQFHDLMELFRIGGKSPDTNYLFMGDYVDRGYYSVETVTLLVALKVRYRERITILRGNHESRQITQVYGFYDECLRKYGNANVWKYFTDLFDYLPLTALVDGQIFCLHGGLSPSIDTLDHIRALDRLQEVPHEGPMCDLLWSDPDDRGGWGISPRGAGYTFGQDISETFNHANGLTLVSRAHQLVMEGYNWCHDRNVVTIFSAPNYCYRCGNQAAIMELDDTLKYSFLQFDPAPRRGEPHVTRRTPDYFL
protein,measurement,value
recombinant human Protein Phosphatase Methylesterase-1 (PME-1) (protein) MSALEKSMHLGRLPSRPPLPGSGGSQSGAKMRMGPGRKRDFSPVPWSQYFESMEDVEVENETGKDTFRVYKSGSEGPVLLLLHGGGHSALSWAVFTAAIISRVQCRIVALDLRSHGETKVKNPEDLSAETMAKDVGNVVEAMYGDLPPPIMLIGHSMGGAIAVHTASSNLVPSLLGLCMIDVVEGTAMDALNSMQNFLRGRPKTFKSLENAIEWSVKSGQIRNLESARVSMVGQVKQCEGITSPEGSKSIVEGIIEEEEEDEEGSESISKRKKEDDMETKKDHPYTWRIELAKTEKYWDGWFRGLSNLFLSCPIPKLLLLAGVDRLDKDLTIGQMQGKFQMQVLPQCGHAVHEDAPDKVAEAVATFLIRHRFAEPIGGFQCVFPGC,"PP2A methylesterase activity: demethylation of immunoprecipitated C subunit, immunoblot with methylation-sensitive antibody 4b7",human PME-1 is a PP2A methylesterase
same,"amount of 3H-methyl groups remaining on C subunit after 1 h at 32° C., SDS-PAGE",PME-1 was clearly able to demethylate PP2A C subunit as measured by this assay
same,methylesterase activity towards PP2A C subunit,lysates of bacteria expressing PME-1 contain a PP2A methylesterase activity not found in bacterial lysates lacking PME-1
same,"signal of the antibody that only recognizes unmethylated PP2A against a methylation-insensitive antibody, immunoblot","PME-1 was clearly able to demethylate PP2A C subunit, as measured by this assay"
